Test results as given in US20250092426, “CAS ENDONUCLEASES AND RELATED METHODS” (Flagship Pioneering Innovations VII, LLC, published 2025).

Molecular target: T1, CasEnd-22 (synthetic construct)
T1 chain: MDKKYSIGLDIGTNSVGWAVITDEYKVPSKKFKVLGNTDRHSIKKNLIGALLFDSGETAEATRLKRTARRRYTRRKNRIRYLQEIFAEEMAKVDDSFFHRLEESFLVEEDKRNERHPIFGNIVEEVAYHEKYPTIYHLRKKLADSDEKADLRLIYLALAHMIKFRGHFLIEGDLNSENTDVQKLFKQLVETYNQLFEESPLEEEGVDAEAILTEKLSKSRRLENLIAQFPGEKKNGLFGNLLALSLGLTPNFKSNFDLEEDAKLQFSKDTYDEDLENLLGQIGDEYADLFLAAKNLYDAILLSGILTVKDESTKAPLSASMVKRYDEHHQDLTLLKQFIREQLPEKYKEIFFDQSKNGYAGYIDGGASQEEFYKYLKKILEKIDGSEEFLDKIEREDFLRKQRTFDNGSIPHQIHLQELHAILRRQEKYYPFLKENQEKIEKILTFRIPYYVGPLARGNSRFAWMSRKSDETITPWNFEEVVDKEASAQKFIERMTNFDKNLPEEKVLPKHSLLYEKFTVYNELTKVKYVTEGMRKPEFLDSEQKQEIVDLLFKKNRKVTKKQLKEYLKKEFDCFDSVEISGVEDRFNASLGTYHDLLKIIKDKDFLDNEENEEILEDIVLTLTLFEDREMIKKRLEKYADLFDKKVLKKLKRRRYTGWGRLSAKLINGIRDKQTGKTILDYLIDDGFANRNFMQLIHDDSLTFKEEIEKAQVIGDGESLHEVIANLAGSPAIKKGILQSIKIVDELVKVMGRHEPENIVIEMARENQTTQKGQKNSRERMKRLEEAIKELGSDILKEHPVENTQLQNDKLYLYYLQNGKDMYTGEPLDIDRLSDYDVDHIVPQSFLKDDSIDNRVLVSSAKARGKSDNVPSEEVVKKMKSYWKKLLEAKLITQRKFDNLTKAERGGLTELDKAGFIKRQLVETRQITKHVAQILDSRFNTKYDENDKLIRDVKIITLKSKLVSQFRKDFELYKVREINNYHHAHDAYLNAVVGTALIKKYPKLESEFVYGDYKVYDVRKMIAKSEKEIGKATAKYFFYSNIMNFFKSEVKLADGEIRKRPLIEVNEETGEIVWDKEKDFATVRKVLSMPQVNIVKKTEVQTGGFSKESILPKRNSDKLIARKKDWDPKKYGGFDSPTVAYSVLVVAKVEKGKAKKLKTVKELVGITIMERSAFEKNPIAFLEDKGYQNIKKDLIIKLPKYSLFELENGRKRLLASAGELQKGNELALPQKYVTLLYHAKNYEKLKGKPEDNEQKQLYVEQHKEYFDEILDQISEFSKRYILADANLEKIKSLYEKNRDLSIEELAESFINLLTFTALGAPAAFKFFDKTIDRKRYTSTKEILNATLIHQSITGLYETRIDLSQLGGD
Experiment: cell_activity; +++; K562, second nick guide SEQ 380; PAM not stated
Protocol: The ability of the candidate endonucleases, including endonucleases 1-38 (CasEnds 1-38) (set forth in Table 1 and SEQ ID NOS: 1-38, respectively), to mediate target nucleic acid editing in cells was assessed by amplicon sequencing of the endogenous hemoglobin subunit beta (eHBB) gene, wherein the percent of amplicons displaying the intended edit is measured. The editing system is comprised of a template RNA (designed to introduce the Single Nucleotide Polymorphism), a second nick guide RNA, and a fusion protein consisting of retroviral reverse transcriptase and the individual subject Cas endonuclease.
Briefly, 250 ng of plasmid DNA encoding the subject fusion protein (containing one of the subject CasEnds), 250 ng each of plasmid DNA encoding the template RNA and the second nick guide RNA were added to 15 μL Lonza SF buffer containing 250,000 K562 cells. Nucleofection was mediated utilizing program FF-120-DA on a Lonza nucleofector. The day of nucleofection was marked as day 0. At day 3, the cells were harvested and subjected to lysis buffer treatment overnight. Genomic DNA was extracted and used for targeted amplicon sequencing to evaluate the performance of each Cas endonucleases based on their percent edit efficiencies.

B1: HBB template RNA ; HBB protospacer (ssRNA ; dsDNA)
RNA: CAUGGUGCACCUGACUCCUGGUUUUAGAGCUAGAAAUAGCAAGUUAAAAUAAGGCUAGUCCGUUAUCAACUUGAAAAAGUGGCACCGAGUCGGUGCACGGCAGACUUCUCUGCCGGAGUCAGGUGC
DNA 1: CATGGTGCACCTGACTCCTG
DNA 2: CAGGAGTCAGGTGCACCATG
activity: ≥ 100 % of reference
